Consider six molecules from patent US20260117244A1, “INHIBITORY RNA FOR THE CONTROL OF PHYTOPATHOGENS” (priority 2021, published 2026).

In this data set the test system is G. orontii MGH1. The data set is described as follows: Spray-induced gene silencing (SIGS), G. orontii spore production on A. thaliana (whole plant and detached leaf assays). It is filed as in vivo, Golovinomyces orontii. The following applies: topical dsRNA against G. orontii target (Gor Seq ID); detached leaf assay; n>=3.

B1: 87 (nucleic acid, listed as Golovinomyces orontii)
chain: ATGCCTCTACGAAGAATACTAAAGAAGTCAAAATACGCCAAAAAGAGTCCAGAAGAAGAGACTGTCATAACACCCATCTTATTTATGCGTAGCGACACAAAAACAGAGGAGATTATTTATCCACCTAGTTATCCTGATCATGAAGAATCCTTACGCAGTAAAAAGGGGCGAAACAAGAAGGAAATACCTAGGACCCCTTCGGAATCTCGTAAATCATCTCTTAGACTCAAGCCAAACTTTCTGAAAAACCAGAAATCCGAAAAGGTGCCAGAAAATCTGCCAGATATAGAGATCATTGCTGATCAGGTCGAGAGGAGAATCAGGGCACAATGGGAAAAACGTGCGACAATTCTAGCCAAAAGAAATGAGGAAACAACAGCTAAGTATCTATCAATCACTGACGATAAACATGCAAAGGAGGTGAGAATGGCGAGAGAGCTGGACGAGGCAAATTCGGCCAACGATAACATTATAGAAGCAATTAGACTACATGAAGCGGGGAGCCGGCTGGCGGAGTTCCAAAATGAGAATAATACCCTCAGTCAAGTATTGTACGGTCTTTCTTTAAGGTACGCATGGCTGGGGATGTACTCCAGATCCGGAAAAGGCACTCAAATACCTTCAGCTGCAGCATCGTGTGCAGCCTCAATCGAGGATTTAGCACTTAGGGCGGGGAAGAAAAGTGGAGGAGCAGCGAAAGATGAATTAGTTCTTGCTATTTACGAGCTCGCAAATAGTTTTAGACATGGCTGGGGAATTCCGATCGACCGAGTGGCTGCGAAACAGTACTATGAGACGGCAGCTAATTTGGGTGATACGGACGCTATGAATGAAGTGGCCCGATGTTATGCCGAAGGAATCGGTTGCAAGAAAGACATGTTTGTGGCTGCTAAATACTACAGGATGGCTGAGAGTAAGGGTAACAAAATCATTGGAAACTCCTGGTACGTTGCAATTTTTGCTCTCTAA
modifications: listed as DNA
Take B1: the “G. orontii Spore Production on Arabidopsis, Detached Leaf Assay, % reduction” value (“G. orontii Spore Production … % reduction” below) came to 42%.

B2: 70 (nucleic acid, listed as Golovinomyces orontii)
chain: ATGTCAAGATCCCTTCACAATCTGAGCACCATTCAGAAGCTTTTTCCAATCTTGGGACCATCTCAAATTACTTCTAAGTTTTTGCTATGTTCACGTACATTATTTAGGCAGACTCGCTACAGTTCCCAATTTAATTTGGGCTATACCCGGGCCATTGAAAGGAAACCCTTAACTTTAAAGTCTATTGAATCTTTGTACAAAAGAGAGGAGCCCATCTTGGCACTCACTGCCCACGACTTTCCCAGTGGATATATTGCTGATGAAGCTGAGATTGAAATCGTACTTGTGGGAGACAGCCTGGCCATGGTAGCAATGGGGTTAGAAGATACAAGTGAGATTCTACTTGAAGAGATGCTACTCCATTGTCGCTCTGTTTCTCGAGCTGTGAAGACTGCTTTTACGGTAGGGGATCTTCCTATGGGATCCTATGAAGTATCCCCAGAACAGGCTCTAATTTCTGCTATTCGGATGATTAAGGAAGGTAGAGTAAAAGCTATTAAATTAGAAGGAGGCGCAGAAATGGGCCCAACCATAAAGAAAATAGTTACTGCCGGTATTCCGGTTCTCGGGCATATAGGGTTAACTCCGCAACGACAAAATTCTTTGGGCGGCTTCCGAGTACAAGGAAAGACCTCCAAGAGTGCACTCAAGATTCTTGAGGATGCATTAGCCATACAGGAAGCAGGCTGTTTTGCTGTTGTGATTGAGGCTATACCCGCAGAGGTAGCTACCATAATTACAAAGGAACTTTCAATCCCAACTATCGGTATTGGCGCTGGTAATGGCTGTTCAGGCCAAGTACTAGTTCAGGTTGATATGACTGGAAATTTTCCACCCGACCGTTCGATACCAAAATTTGTCAAAAAGTATTGTGACATTTGGAATGAGAGCTTGATGGGGATACGATCATATCGAGAAGAAACTAAGTGTAGGAAGTTTCCCGCACACGAACACACTTACTCAATCCCTAAAAATGAACTTGCTGAGTTCGAGAGAATACTAGCTTCTAAAGAACACTAG
modifications: listed as DNA
With B2, the “G. orontii Spore Production … % reduction” value is on record as 46%.

B3: 32 (nucleic acid, listed as Golovinomyces orontii)
chain: GGTTCATCACCTCTAAATTTGTGAAGAGGTTTCTAAAAGATTCATCTCATCTCATAGCCAGAATTTAGACGCTGTATAAACGATGTTTGGGTCAGGATGTCCGATCAGAATGTATCCAAGAGTCAAGCGTAAATTCTGCAGGCTAGATGTATTTCGTCCCATCATGAATCGTAGATACAAAAGCGGACCTTTTGGCTATACGATGGCACAGGCGCTCGTTTACATGAAGCATGGTGAACCAGACGATGTACTCTCTCTTCATCGTCACTCCATTACACCTACACTTCCACCAGATTCTATTTTCTTACGGACACTTGCAAGCCCAATCAATCCAGCCGATATCAACCAAATTCAAGGTGTCTATCCGTTAAAACCAGAATTCTCGCCTCTACTTGGTACACCGCTTCCGAGCGCTGTAGGTGGGAATGAAGGCTGTTTTGAAGTTGTTTCACTCGGCTCTTCAGTGACTGATGTTAAGAAAGGCGACTGGGTGGTGGCAAATACCCCTGCACTCGGCACCTGGCGTACGCATTTGGTTGTACAGAAGTCTGATATTTTGCCCGTAGAGAAAAAAGGGTTAACCGCAACACAAGTTTGTACTGCATCGATCAATCCGCGAACAGCTTACTGCATGTTGAATAACATTGAGAAACTGCAGAAAGGTGATTGGTGGATTCAAAATGGAGCCAACAGTAGCGTGGGTCGTGCCGCAATTCAATTGGGAAAGTTATGGGGCTTTAAATCAATAAATGTCATTAGAGATCGACCAGACGTGGTATCTACCGAGTCCTTGCGGGCTGAATTGTTAGAATTAGGTGCTACACATGTTGTCACAGAAACAGAGCTGCTTGACAGAGGCTTTCGAGAGCTCGTGACGAAATGGACTAATGATAATAATAAGGGAATTAGATTAGGCTTGAACTGTGTTGGGGGTAAGTCTACAACGGCATTGGTAAAATTACTCGGGAAAAGAGGTCATTTAATCACATATGGTGGCATGTCTCGACAACCTCTACAACTTCCAACCAGCCGCCTCATATTTGATGATCTACGTTTTAGTGGCTTCTGGATTAGTCGCTGGTCCGTCGATAATCCTCGGGAAAGTCAGCACATGCTCAACAAAGTTCTGGACCTCATTCGTACAGGTTCTTTGAAGGAAACTCCTCATCACGAAATACTCTGGAATTGGGATACTAAGATTCAAGTACTCAATGAAGGAATTAAAGGTGCACTTCAGGGTTATCGAAACGCCAAAAATATTCTTGTTTACGGAGATACATAAATTTTGAGT
modifications: listed as DNA
In the case of B3, the “G. orontii Spore Production … % reduction” value worked out at 50%.

B4: 15 (nucleic acid, listed as Golovinomyces orontii)
chain: CCTTTTGATTACTCCGCCCAACTTTTTTTTTTTAGGTTTTCAGTACTTCACCCTAGGAAGCTCCTCAATCATCATTTCTGAAAAGATGTCATCGTCTCTAGACCAACTTAAATCCACTGGAACTACTATTGTCTGTGATTCAGGTGATTTTGAATCAATTGGCAAATATAAACCTC
modifications: listed as DNA
Take B4: the “G. orontii Spore Production … % reduction” value is on record as 38%.

B5: 79 (nucleic acid, listed as Golovinomyces orontii)
chain: ATGTCAGCATCTAGCCTTTCTCAGTCTACAGCTGAGAAAAGACACGAAGAATATCAGTATTTAGATCTGATCTCCGAAATAGTAGAGACAGGGGAGCATCGACCAGATCGAACTGGAACTGGAACCTTTTCTTTGTTCGCGCCAAAACCTTTAAAATTCCAGCTTTCTGAATCTGGAAAGCCGATTCTGCCCCTAATTACAACCAGGCGCATCTTCTTACGTGCTGTAATCACCGAACTTCTCTGGTTCATATCCGGCTCGACCTCCTCCATTCCTCTGGTAGAAGCAGGAATAAAGATTTGGGATGGAAATGGAACCCGTGAATATCTTGATTCGGTTGGTTTATCTCATCGTGATGTTGGAGATCTTGGTCCAATATATGGATTCCAATGGCGTCATTTTGGTGCCGACTACGTTGATGCTAACACTGACTATACTGGGAAAGGGGTTGATCAACTCGCTGAAGTTGTTGCAAAACTCAAGACAAATCCATATGACCGCCGCATTATTCTTACAGCCTGGAACCCGCGGGATCTAAAGTCAATGGCTTTACCGCCTTGTCATCTTCTTGCACAATTTTACGTCTCATTCCCACAAGGTAGTAAATCTGTTGGGACTCTTCACTGTCTTTTATATCAGCGTAGCTGCGACATGGGCCTTGGAGTACCATTTAATATTGCAAGCTATGCCTTACTCACTCATATGTTGGCTCATACATGCGAACTACTGCCTGGGACTTTGACGCACACCATGGGTGATGCACATGTCTATGCCGATCATGTTGAGGCTTTAAAAACACAACTGACACGTGAGCCGCGTCCATTCCCTGAAATTGAGATTAGGAAAGAAAAAGGAGGAAGTATAGACGGCTGGCTTGTCGATGATTTTCTCATCAAAGGCTACGAACCGCACAAGTCTATCTCGATGAAGATGTCGGTGTAA
modifications: listed as DNA
B5: the “G. orontii Spore Production … % reduction” value is 68%.

B6: 64 (nucleic acid, listed as Golovinomyces orontii)
chain: ATGGAGGCATGTGTGATCGACGTGGTGGCTACTAGGGTAGACGATTGCGAAACTCCAGCGTCGAAAGATACCTCCAACGCTTGGTGTCATCCAGGAGCTGCCGCTTTCGATTTTCGCAGTGATGTCTTTACTTCACCGACTTGCTCAATGCTCGAAGCAATCAAAAACACAACCTTACTCGATGATGTCTATCAGGCTGATCCTACCACAAATGATCTGGAATCACACTTGGCAGCGCGCACATCTCATGCCGCAGCACTGTTTGTCTTGTCTGGCACTATGGGGAATCAAATAGCTCTACGTTCTCACTTGCAACAACCACCGTATGCAATTCTTTGCGATCATCGAAGTCATATTTTTCAATGGGAAGCGGGCGGCGTTGCAAGTCTCTGCGGTGCACTTGTCAAAACTGTTGTACCAGCAAACGGTGAGTATCTTACTCGGGAAGATATTGAGAGTAATGTTGTGCTTGGTGATGATATTCATAGTACGCCTACTCGGGTTATATCTCTTGAAAATACACTGGGTGGCATTGTAATACCGCTAGAGGAGACGCGACGTATAACGAATTTTGCTCGAGAAAACAATATCAAGGTTCACCTTGATGGTGCACGATTGTGGGAGGCAGTCGCTGCAGGTGCAGGTTCACTTACCGATTATTGTGCTCTGTTTGATAGTGTAAGTCTATGTTTCTCCAAGGGACTCGGAGCACCAGTCGGCAGTATTTTAGTTGGTGGAGAGGCTTTTATCAAACATGCTAGATGGATAAGAAAGTCGATTGGTGGCGGCCTTCGTCAGCCTGGTCTGTTAACAGCAACAGCCAGGGTTGCTCTGGATGAAACGTTTGGAAGTGGCCCTTGGGGTGAAGGCGGAAAGCTAAAAGGCACTCACTTTGTAGCGAAAAGGATAACTGCACTCTGGACGTCGCTAGGTGGGAAACTACTGAGGAGGACCGAGACAAATATGGTTTGGTTAGATCTTGAGGGTTCTAAGATTAGTGTAGAGACGTTTGTGAAAATTGGAGCAGAGCATGGGGTAGCACTCGAAGGTCCAAGGCTAGTGGTGCATTATCAAATTGAAGACGCTGCAGTAGAGAAGTTAAAAGCAGTTTTTGAACAGGTCCTGCTTAAAACCTAG
modifications: listed as DNA
With B6, the “G. orontii Spore Production … % reduction” value worked out at 55%.
